For the data set, the target named is T1, PsdR (Pseudomonas aeruginosa PAO1?) (UniProt Q9HVS2).
T1 sequence: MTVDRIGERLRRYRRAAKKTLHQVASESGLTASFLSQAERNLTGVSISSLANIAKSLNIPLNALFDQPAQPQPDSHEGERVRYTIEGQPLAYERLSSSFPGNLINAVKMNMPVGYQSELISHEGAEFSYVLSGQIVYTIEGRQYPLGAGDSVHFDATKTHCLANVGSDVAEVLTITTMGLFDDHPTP
Briefly: EMSA. Particulars: EMSA: 0.5 nM Cy5 probe, 10 mM Tris-HCl pH 8, 50 mM KCl, 10 mM MgCl2, 10% glycerol, 0.1 mg/ml BSA, 25 ng/ul poly(dI-dC), 15 min at 25 C; competition with 100 nM …. On the technique in general: A gel shift assay detects complexes by their altered migration in electrophoresis.

Binding data for two sequences are collected here from publication PMC7901475.

With “CCCGAACCCCTATTTTTAAGTGTGACTGAAAATTTGTTTTGACCTGAATCAGTTCTCGACTTAAATTTCAGCCCGGTCCAGACGAGGAGAACA (double strand) [pPA4498 (mdpA promoter) half-site mutant]”, the binding entry was “binds more weakly”.
In the case of “CCCGAACCCCTATTTTTAAGTGTGACTGAAAATTTGTTTTGACCTGAATTTAAGCTCGACTTAAATTTCAGCCCGGTCCAGACGAGGAGAACA (double strand) [pPA4498 (mdpA promoter) wild type]”, the binding result is given as “binds”.
